Test results as given in patent US20260217814 (published 2026).

T1: human IL-17A (human)
T1 chain: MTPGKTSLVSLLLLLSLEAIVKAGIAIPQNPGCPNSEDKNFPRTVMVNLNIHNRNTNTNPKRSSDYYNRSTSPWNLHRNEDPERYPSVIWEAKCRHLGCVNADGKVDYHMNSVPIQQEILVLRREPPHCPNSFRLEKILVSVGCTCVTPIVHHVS

T2: IL-17C (human)
T2 chain: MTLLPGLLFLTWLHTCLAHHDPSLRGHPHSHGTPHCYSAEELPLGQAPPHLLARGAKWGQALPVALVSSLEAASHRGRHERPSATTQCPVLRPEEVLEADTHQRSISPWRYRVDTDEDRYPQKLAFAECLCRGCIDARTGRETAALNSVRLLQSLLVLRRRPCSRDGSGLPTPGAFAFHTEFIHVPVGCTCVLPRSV

T3: IL-17E (human)
T3 chain: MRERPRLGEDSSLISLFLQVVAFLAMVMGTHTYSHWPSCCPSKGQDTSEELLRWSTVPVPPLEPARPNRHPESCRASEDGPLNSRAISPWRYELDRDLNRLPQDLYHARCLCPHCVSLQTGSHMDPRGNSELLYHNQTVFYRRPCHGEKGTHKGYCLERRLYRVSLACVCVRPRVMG

T4: IL-17F (human)
T4 chain: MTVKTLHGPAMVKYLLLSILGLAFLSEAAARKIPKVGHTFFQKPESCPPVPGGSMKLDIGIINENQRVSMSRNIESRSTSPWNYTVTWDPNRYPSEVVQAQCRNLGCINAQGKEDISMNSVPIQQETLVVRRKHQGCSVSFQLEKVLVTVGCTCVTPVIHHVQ

T5: IL-17D (human)
T5 chain: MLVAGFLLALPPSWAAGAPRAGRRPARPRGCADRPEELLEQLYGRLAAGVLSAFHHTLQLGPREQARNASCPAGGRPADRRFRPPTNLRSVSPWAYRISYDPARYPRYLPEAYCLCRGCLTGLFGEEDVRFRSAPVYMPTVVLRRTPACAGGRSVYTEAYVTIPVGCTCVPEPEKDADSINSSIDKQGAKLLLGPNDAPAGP

T6: IL-17B (human)
T6 chain: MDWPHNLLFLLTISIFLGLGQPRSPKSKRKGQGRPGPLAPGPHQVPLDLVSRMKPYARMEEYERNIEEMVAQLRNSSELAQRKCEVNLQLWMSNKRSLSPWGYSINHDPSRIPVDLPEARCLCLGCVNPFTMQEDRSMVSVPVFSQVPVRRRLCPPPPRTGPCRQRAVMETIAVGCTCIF


Experiments:
human IL-17A [1] = molecular target: T1, human IL-17A; experiment: SPR
human TNFa = human TNFa (human); experiment: SPR
IL-17C = molecular target: T2, IL-17C; experiment: competition ELISA
IL-17E = molecular target: T3, IL-17E; experiment: competition ELISA
IL-17F = molecular target: T4, IL-17F; experiment: competition ELISA
IL-17D = molecular target: T5, IL-17D; experiment: competition
human IL-17A [2] = molecular target: T1, human IL-17A; experiment: SPR, direct setup
IL-17B = molecular target: T6, IL-17B; experiment: competition ELISA
human IL-17A [3] = molecular target: T1, human IL-17A; experiment: SPR, capture setup

Binder	Kd (human TNFa)	binding result (IL-17C)	binding result (IL-17E)	binding result (IL-17F)	binding result (IL-17D)	Kd (human IL-17A [2])	binding result (IL-17B)	Kd (human IL-17A [3])	also measured
A4 IL-17A arm (antibody) chain 1: EVQLVESGGGLVQPGGSLRLSCAASGFSFSSDYWMCWVRQAPGKGLEWIGCIYAGDVDDTDYASWARGRFTISRDNSKNTVYLQMNSLRAEDTAVYYCARVDGFDITYFDLWGQGTLVTVSSASTKGPSVFPLAPSSKSTSGGTAALGCLVKDYFPEPVTVSWNSGALTSGVHTFPAVLQSSGLYSLSSVVTVPSSSLGTQTYICNVNHKPSNTKVDKKVEPKSCGGGGSGGGGSDIQMTQSPSSLSASVGDRVTITCQSSESVYSNNQLSWYQQKPGQPPKLLIYDASDLASGVPSRFSGSGSGTDFTLTISSLQPEDFATYYCAGGFSSSSDTAFGGGTKLTVLGGGGGSGGGGSGGGGSGGGGSEVQLVESGGGLVQPGGSLRLSCAASGFSLSSNAMGWVRQAPGKGLEYIGIISVGGFTYYASWAKGRFTISRDNSKNTVYLQMNSLRAEDTATYFCARDRHGGDSSGAFYLWGQGTLVTVSS chain 2: DIQMTQSPSSLSASVGDRVTITCQASQTINYWLAWYQQKPGKAPKLLIYRASTLASGVPSRFSGSGSGTDFTLTISSLQPEDFATYYCQNYYYSTSRSYGFGGGTKLTVLGRTRTVAAPSVFIFPPSDEQLKSGTASVVCLLNNFYPREAKVQWKVDNALQSGNSQESVTEQDSKDSTYSLSSTLTLSKADYEKHKVYACEVTHQGLSSPVTKSFNRGECGGGGSGGGGSDIQMTQSPSSLSASVGDRVTINCQASESISSWLAWYQQKPGKRPKLLIYKASTLASGVPSRFSGSGSGTDYTLTISSLQPEDFATYYCQGYYLDSSVDDNVFGGGTKLTVLGGGGGSGGGGSGGGGSGGGGSEVQLVESGGGLVQPGGSLRLSCAASGIDFSTYGISWVRQAPGKGLEWIAYIYPDYGITDYASWVNGRFTISLDNAQNTVYLQMNSLRAEDTAVYYCARSGSYYSRGWGAHYFNLWGQGTLVTVSS	–	–	–	–	–	–	–	–	Kd (human IL-17A [1]): 0.337 nM
A4 TNFa arm (antibody) chain 1: EVQLVESGGGLVQPGGSLRLSCAASGFSFSSDYWMCWVRQAPGKGLEWIGCIYAGDVDDTDYASWARGRFTISRDNSKNTVYLQMNSLRAEDTAVYYCARVDGFDITYFDLWGQGTLVTVSSASTKGPSVFPLAPSSKSTSGGTAALGCLVKDYFPEPVTVSWNSGALTSGVHTFPAVLQSSGLYSLSSVVTVPSSSLGTQTYICNVNHKPSNTKVDKKVEPKSCGGGGSGGGGSDIQMTQSPSSLSASVGDRVTITCQSSESVYSNNQLSWYQQKPGQPPKLLIYDASDLASGVPSRFSGSGSGTDFTLTISSLQPEDFATYYCAGGFSSSSDTAFGGGTKLTVLGGGGGSGGGGSGGGGSGGGGSEVQLVESGGGLVQPGGSLRLSCAASGFSLSSNAMGWVRQAPGKGLEYIGIISVGGFTYYASWAKGRFTISRDNSKNTVYLQMNSLRAEDTATYFCARDRHGGDSSGAFYLWGQGTLVTVSS chain 2: DIQMTQSPSSLSASVGDRVTITCQASQTINYWLAWYQQKPGKAPKLLIYRASTLASGVPSRFSGSGSGTDFTLTISSLQPEDFATYYCQNYYYSTSRSYGFGGGTKLTVLGRTRTVAAPSVFIFPPSDEQLKSGTASVVCLLNNFYPREAKVQWKVDNALQSGNSQESVTEQDSKDSTYSLSSTLTLSKADYEKHKVYACEVTHQGLSSPVTKSFNRGECGGGGSGGGGSDIQMTQSPSSLSASVGDRVTINCQASESISSWLAWYQQKPGKRPKLLIYKASTLASGVPSRFSGSGSGTDYTLTISSLQPEDFATYYCQGYYLDSSVDDNVFGGGTKLTVLGGGGGSGGGGSGGGGSGGGGSEVQLVESGGGLVQPGGSLRLSCAASGIDFSTYGISWVRQAPGKGLEWIAYIYPDYGITDYASWVNGRFTISLDNAQNTVYLQMNSLRAEDTAVYYCARSGSYYSRGWGAHYFNLWGQGTLVTVSS	0.257 nM	–	–	–	–	–	–	–	–
A2 (27-07-G02-sc02) (antibody) DIQMTQSPSSLSASVGDRVTITCQASQTINYWLAWYQQKPGKPPKLLIYRASTLASGVPSRFSGSGSGTDFTLTISSLQPEDFATYYCQNYYYSTSRSYGFGGGTKLTVLGGGGGSGGGGSGGGGSGGGGSEVQLVESGGGLVKPEGSLRLSCAASGFSFSSDYWMCWVRQAPGKGLEWIACIYAGDVDDTDYASWARGRFTISRDNSKNTVYLQMNSLRAEDTAVYYCARVDGFDITYFDLWGQGTLVTVSS	–	no binding	no binding	no binding	no binding	0.055 nM	no binding	3 nM	–
A3 TNFa arm (antibody) chain 1: EVQLVESGGGLVQPGGSLRLSCAASGFSLSSNAMGWVRQAPGKGLEYIGIISVGGFTYYASWAKGRFTISRDNSKNTVYLQMNSLRAEDTATYFCARDRHGGDSSGAFYLWGQGTLVTVSSASTKGPSVFPLAPSSKSTSGGTAALGCLVKDYFPEPVTVSWNSGALTSGVHTFPAVLQSSGLYSLSSVVTVPSSSLGTQTYICNVNHKPSNTKVDKKVEPKSCGGGGSGGGGSDIQMTQSPSSLSASVGDRVTITCQASQTINYWLAWYQQKPGKAPKLLIYRASTLASGVPSRFSGSGSGTDFTLTISSLQPEDFATYYCQNYYYSTSRSYGFGGGTKLTVLGGGGGSGGGGSGGGGSGGGGSEVQLVESGGGLVQPGGSLRLSCAASGFSFSSDYWMCWVRQAPGKGLEWIGCIYAGDVDDTDYASWARGRFTISRDNSKNTVYLQMNSLRAEDTAVYYCARVDGFDITYFDLWGQGTLVTVSS chain 2: DIQMTQSPSSLSASVGDRVTITCQSSESVYSNNQLSWYQQKPGQPPKLLIYDASDLASGVPSRFSGSGSGTDFTLTISSLQPEDFATYYCAGGFSSSSDTAFGGGTKLTVLGRTRTVAAPSVFIFPPSDEQLKSGTASVVCLLNNFYPREAKVQWKVDNALQSGNSQESVTEQDSKDSTYSLSSTLTLSKADYEKHKVYACEVTHQGLSSPVTKSFNRGECGGGGSGGGGSDIQMTQSPSSLSASVGDRVTINCQASESISSWLAWYQQKPGKRPKLLIYKASTLASGVPSRFSGSGSGTDYTLTISSLQPEDFATYYCQGYYLDSSVDDNVFGGGTKLTVLGGGGGSGGGGSGGGGSGGGGSEVQLVESGGGLVQPGGSLRLSCAASGIDFSTYGISWVRQAPGKGLEWIAYIYPDYGITDYASWVNGRFTISLDNAQNTVYLQMNSLRAEDTAVYYCARSGSYYSRGWGAHYFNLWGQGTLVTVSS	< 0.0232 nM	–	–	–	–	–	–	–	–
A5 TNFa arm (antibody) chain 1: EVQLVESGGGLVQPGGSLRLSCAASGIDFSTYGISWVRQAPGKGLEWIAYIYPDYGITDYASWVNGRFTISLDNAQNTVYLQMNSLRAEDTAVYYCARSGSYYSRGWGAHYFNLWGQGTLVTVSSASTKGPSVFPLAPSSKSTSGGTAALGCLVKDYFPEPVTVSWNSGALTSGVHTFPAVLQSSGLYSLSSVVTVPSSSLGTQTYICNVNHKPSNTKVDKKVEPKSCGGGGSGGGGSDIQMTQSPSSLSASVGDRVTITCQASQTINYWLAWYQQKPGKAPKLLIYRASTLASGVPSRFSGSGSGTDFTLTISSLQPEDFATYYCQNYYYSTSRSYGFGGGTKLTVLGGGGGSGGGGSGGGGSGGGGSEVQLVESGGGLVQPGGSLRLSCAASGFSFSSDYWMCWVRQAPGKGLEWIGCIYAGDVDDTDYASWARGRFTISRDNSKNTVYLQMNSLRAEDTAVYYCARVDGFDITYFDLWGQGTLVTVSS chain 2: DIQMTQSPSSLSASVGDRVTINCQASESISSWLAWYQQKPGKRPKLLIYKASTLASGVPSRFSGSGSGTDYTLTISSLQPEDFATYYCQGYYLDSSVDDNVFGGGTKLTVLGRTRTVAAPSVFIFPPSDEQLKSGTASVVCLLNNFYPREAKVQWKVDNALQSGNSQESVTEQDSKDSTYSLSSTLTLSKADYEKHKVYACEVTHQGLSSPVTKSFNRGECGGGGSGGGGSDIQMTQSPSSLSASVGDRVTITCQSSESVYSNNQLSWYQQKPGQPPKLLIYDASDLASGVPSRFSGSGSGTDFTLTISSLQPEDFATYYCAGGFSSSSDTAFGGGTKLTVLGGGGGSGGGGSGGGGSGGGGSEVQLVESGGGLVQPGGSLRLSCAASGFSLSSNAMGWVRQAPGKGLEYIGIISVGGFTYYASWAKGRFTISRDNSKNTVYLQMNSLRAEDTATYFCARDRHGGDSSGAFYLWGQGTLVTVSS	0.1 nM	–	–	–	–	–	–	–	–
PRO592 (27-31-C04-sc02) (antibody) DIQMTQSPSSLSASVGDRVTITCQASESIYRYLSWYQQKPGKAPKLLIYLASTLTSGVPSRFSGSGSGTDFTLTISSLQPEDFATYYCQSNFGTASTTYYNTFGGGTKLTVLGGGGGSGGGGSGGGGSGGGGSEVQLVESGGGLVQPGGSLTLSCAASGFSFSGFYYMCWVRQAPGKGLEWIGCIDTGDGTTYYASWAKGRFTISRDNSKNTVYLQMNSLRAEDTAVYYCARDAAYGGYAYPAHGMDLWGPGTLVTVSS	–	no binding	no binding	no binding	no binding	0.038 nM	no binding	0.37 nM	–
